# T1: P1′ peptide library component with P1′=Glu
# T1 chain: EVNLEAEF
# T2: P1′ peptide library component with P1′=Gly
# T2 chain: EVNLGAEF
# T3: EVNLAAEF (SEQ ID NO: 258)
# T3 chain: EVNLAAEF
# T4: P1′ peptide library component with P1′=Pro
# T4 chain: EVNLPAEF
# T5: EVNFEAEF (SEQ ID NO: 260)
# T5 chain: EVNFEAEF
# T6: EVNLDAEF, Swedish mutant APP 8-mer peptide (SEQ ID NO: 257)
# T6 chain: EVNLDAEF
# T7: EVNFAVEF (SEQ ID NO: 261)
# T7 chain: EVNFAVEF
# T8: EVNFEVEF (SEQ ID NO: 262)
# T8 chain: EVNFEVEF
# T9: EVNFAAEF (SEQ ID NO: 259)
# T9 chain: EVNFAAEF
# Key:
# [1] = target: T1, P1′ peptide library component with …
# [2] = target: T2, P1′ peptide library component with …
# [3] = target: T3, EVNLAAEF (SEQ ID NO: 258)
# [4] = target: T4, P1′ peptide library component with …
# [5] = target: T5, EVNFEAEF (SEQ ID NO: 260)
# [6] = target: T6, EVNLDAEF, Swedish mutant APP 8-mer …
# [7] = target: T7, EVNFAVEF (SEQ ID NO: 261)
# [8] = target: T8, EVNFEVEF (SEQ ID NO: 262)
# [9] = target: T9, EVNFAAEF (SEQ ID NO: 259)
protein,measurement,setting,value
β-secretase (protein) ETDEEPEEPGRRGSFVEMVDNLRGKSGQGYYVEMTVGSPPQTLNILVDTGSSNFAVGAAPHPFLHRYYQRQLSSTYRDLRKGVYVPYTQGKWEGELGTDLVSIPHGPNVTVRANIAAITESDKFFINGSNWEGILGLAYAEIARPDDSLEPFFDSLVKQTHVPNLFSLQLCGAGFPLNQSEVLASVGGSMIIGGIDHSLYTGSLWYTPIRREWYYEVIIVRVEINGQDLKMDCKEYNYDKSIVDSGTTNLRLPKKVFEAAVKSIKAASSTEKFPDGFWLGEQLVCWQAGTTPWNIFPVISLYLMGEVTNQSFRITILPQQYLRPVEDVATSQDDCYKFAISQSSTGTVMGAVIMEGFYVVFDRARKRIGFAVSACHVHDEFRTAAVEGPFVTLDMEDCGYNIPQTDESTLMTIAY,depletion of full length peptide substrate (LC/MS),[1],most rapidly hydrolyzed by β-secretase (P1′=Glu and P1′=Ala)
same,formation of C-terminal cleavage products (LC/MS),[1],more rapid and comparable rates of formation of the products represented by P1′=Ala and P1′=Glu
same,depletion of full length peptide substrate (LC/MS),[2],two peptides that were not cleaved by β-secretase (P1′=Gly and P1′=Pro)
same,Relative rates of hydrolysis (relative to SEQ ID NO: 257),[3],10
same,depletion of full length peptide substrate (LC/MS),[3],most rapidly hydrolyzed by β-secretase (P1′=Glu and P1′=Ala)
same,formation of C-terminal cleavage products (LC/MS),[3],more rapid and comparable rates of formation of the products represented by P1′=Ala and P1′=Glu
same,depletion of full length peptide substrate (LC/MS),[4],two peptides that were not cleaved by β-secretase (P1′=Gly and P1′=Pro)
same,Relative rates of hydrolysis (relative to SEQ ID NO: 257),[5],17
same,Relative rates of hydrolysis (relative to SEQ ID NO: 257),[6],1
same,depletion of full length peptide substrate (LC/MS),[6],one intermediate sequence (P1′=Asp-the residue normally present in Swedish mutant APP)
same,formation of C-terminal cleavage products (LC/MS),[6],the P1′=Asp product shows formation consistent with this residue being less conducive to β-secretase hydrolysis than either Glu or Ala
same,Relative rates of hydrolysis (relative to SEQ ID NO: 257),[7],30
same,Relative rates of hydrolysis (relative to SEQ ID NO: 257),[8],60
same,Relative rates of hydrolysis (relative to SEQ ID NO: 257),[9],17

# Reference: US20070184488
